Experimental data taken from article PMC8438204 (2021).

B1: HigA2 (protein)
chain: MSNRDLFAELSSALVEAKQHSEGKLTLKTHHVNDVGELNISPDEIVSIREQFNMSRGVFARLLHTSSRTLENWEQGRSVPNGQAVTLLKLVQRHPETLSHIAEL
B2: HigB2 (protein)
chain: MKSVFVESTIFEKYRDEYLSDEEYRLFQAELMLNPKLGDVIQGTGGLRKIRVASKGKGKRGGSRIIYYFLDEKRRFYLLTIYGKNEMSDLNANQRKQLMAFMEAWRNEQS

Tests used:
Experiment in all cases: competition
HigB2 = target: B2
HigA2 3-23 peptide 3-23 = HigA2 3-23 peptide 3-23 (Vibrio cholerae, UniProt Q9KMA5)
HigA2 3-33 peptide 3-33 = HigA2 3-33 peptide 3-33 (Vibrio cholerae, UniProt Q9KMA5)

B1
Kd (HigB2): 16 pM

B2
Kd (HigA2 3-23 peptide 3-23): 3 pM
Kd (HigA2 3-33 peptide 3-33): ~127 pM
